Results published in publication PMC5811216, “Cleavage activates Dispatched for Sonic Hedgehog ligand release” (eLife, 2018).

Target: the molecule itself
Assay: native gel or EMSA; NIH3T3 lysates in NativePAGE sample buffer with 1% DDM, Benzonase treated; 4-20% NativePAGE Bis-Tris gel; anti-HA western blot

Protein	stoichiometry N
DispHA, wild-type murine Dispatched 1 with a carboxyl-terminal HA tag (natural protein, mouse, UniProt Q3TDN0 1-1521, looked up, Dispatched 1 (Disp), mouse; Disp1 cDNA from RIKEN introduced into Not1-Xba1 sites of pCDNA3; The lysate holds both Disp175 and the cleaved Disp145; On the native gel there was a ~480 kDa fraction (trimer) and ~750 kDa fractions; also called pCDNA3 Dispatched WT HA; pCDNA-DispHA; source: NIH3T3, transfected, in lysate (1% DDM); not shown: HA, C-terminal, kept) MAVISGSDSVLLSNGSISTSTSNPSPLSPSDGDLPAQHLGPRETPRTKASPNGCLQLNGTVKSSFLPLDNQRTPQTPTQCCHPCPYHHPVSSHSNHQECHPEAGLAASPALASCRMQPHSEYSASLCPNHSPVYQAAHCLQPSPSFCLHHPWPDHFQHQPVRQHLTIIRPSRPFKFPRSYAALLADWPVVVLGMCTLLIVVCALVGVLVPELPDFSDPLLGFEPRGTTIGQRLVTWNNMMRNTGYKATLANYPYKYAEEQARSHRDDRWSDDHHERERREVDWNFQKDSFFCDVPSDGYSRVVFASAGGETLWNLPAIKSMCDVDNSRIRSHPQFSDLCQRTTAVSCCPSWTLGNYIAILNNRSSCQKIVERDVSHTLKLLRTCAKHYQNGTLGPDCWDKAARRKDQLKCTNVPRKCTKYNAVYQILHYLVDKDFMTPKTADYAVPALKYSMLFSPTEKGESMMNIYLDNFENWNSSDGITTVTGIEFGIKHSLFQDYLLMDTVYPAIAIAIVLLIMCVYTKSMFITLMTMFAIISSLIVSYFLYRVVFNFEFFPFMNLTALIILVGIGADDAFVLCDVWNYTKFDKPRAETSEAVSVTLQHAALSMFVTSFTTAAAFYANYVSNITAIRCFGVYAGTAILVNYVLMVTWLPAVIVLHERYLLNIFTCFRKPQPQAYDKSCWAVLCQKCRRVLFAVSEASRIFFEKVLPCIVIKFRYLWLIWFLALTVGGAYIVCVNPKMKLPSLELSEFQVFRSSHPFERYDAEFKKLFMFERVHHGEELHMPITVIWGVSPEDSGDPLNPKSKGELTLDSTFNIASPASQAWILHFCQKLRNQTFFHQTEQQDFTSCFIETFKQWMENQDCDEPALYPCCSHCSFPYKQEVFELCIKKAIMELDRSTGYHLNNKTPGPRFDINDTIRAVVLEFQSTFLFTLAYEKMQQFYKEVDSWISHELSSAPEGLSRGWFVSNLEFYDLQDSLSDGTLIAMGLSVAVAFSVMLLTTWNIIISLYAIVSIAGTIFVTVGSLVLLGWELNVLESVTISVAVGLSVDFAVHYGVAYRLAPDPDREGKVIFSLSRMGSAIAMAALTTFVAGAMMMPSTVLAYTQLGTFMMLVMCVSWAFATFFFQCLCRCLGPQGTCGQIPFPTKLQCSPFSHTLSARPGDRGPSKTHAASAYSVDARGQKSQLEHEFYELQPLASHSCTSSEKTTYEEPHTCSEFFNGQAKNLRMPVPAAYSSELTKSPSSEPGSALLQSCLEQDTVCHFSLNPRCNCRDAYTHLQYGLPEIHCQQMGDSLCHKCASTAGGFVQIQSSVAPLKASHQAAEGLLHPAQHMLPPGMQNSRPRNFFLHSVQHFQAQENLGRTSTHSTDERLPRTAELSPPPSDSRSTESFQRACCHPENNQRRLCKSRDPGDTEGSGGTKSKVSGLPNQTDKEEKQVEPSLLQTDETVNSEHLNHNESNFTFSHLPGEAGCRSCPNSPQSCRSIMRSKCGTEDCQTPNLEANVPAVPTHSDLSGESLLIKTL	3
DispCSHA, cleavage site mutant (R279A, E280A) of murine Dispatched 1 with a carboxyl-terminal HA tag (natural protein, mouse, UniProt Q3TDN0 1-1521, looked up, Dispatched 1 (Disp), mouse; Disp1 cDNA from RIKEN in pCDNA3; convertase motif disrupted by R279A, E280A; also called DispHA-CS; pCDNA-DispCSHA; source: NIH3T3, transfected, in lysate (1% DDM); not shown: HA, C-terminal, kept) MAVISGSDSVLLSNGSISTSTSNPSPLSPSDGDLPAQHLGPRETPRTKASPNGCLQLNGTVKSSFLPLDNQRTPQTPTQCCHPCPYHHPVSSHSNHQECHPEAGLAASPALASCRMQPHSEYSASLCPNHSPVYQAAHCLQPSPSFCLHHPWPDHFQHQPVRQHLTIIRPSRPFKFPRSYAALLADWPVVVLGMCTLLIVVCALVGVLVPELPDFSDPLLGFEPRGTTIGQRLVTWNNMMRNTGYKATLANYPYKYAEEQARSHRDDRWSDDHHERERAAVDWNFQKDSFFCDVPSDGYSRVVFASAGGETLWNLPAIKSMCDVDNSRIRSHPQFSDLCQRTTAVSCCPSWTLGNYIAILNNRSSCQKIVERDVSHTLKLLRTCAKHYQNGTLGPDCWDKAARRKDQLKCTNVPRKCTKYNAVYQILHYLVDKDFMTPKTADYAVPALKYSMLFSPTEKGESMMNIYLDNFENWNSSDGITTVTGIEFGIKHSLFQDYLLMDTVYPAIAIAIVLLIMCVYTKSMFITLMTMFAIISSLIVSYFLYRVVFNFEFFPFMNLTALIILVGIGADDAFVLCDVWNYTKFDKPRAETSEAVSVTLQHAALSMFVTSFTTAAAFYANYVSNITAIRCFGVYAGTAILVNYVLMVTWLPAVIVLHERYLLNIFTCFRKPQPQAYDKSCWAVLCQKCRRVLFAVSEASRIFFEKVLPCIVIKFRYLWLIWFLALTVGGAYIVCVNPKMKLPSLELSEFQVFRSSHPFERYDAEFKKLFMFERVHHGEELHMPITVIWGVSPEDSGDPLNPKSKGELTLDSTFNIASPASQAWILHFCQKLRNQTFFHQTEQQDFTSCFIETFKQWMENQDCDEPALYPCCSHCSFPYKQEVFELCIKKAIMELDRSTGYHLNNKTPGPRFDINDTIRAVVLEFQSTFLFTLAYEKMQQFYKEVDSWISHELSSAPEGLSRGWFVSNLEFYDLQDSLSDGTLIAMGLSVAVAFSVMLLTTWNIIISLYAIVSIAGTIFVTVGSLVLLGWELNVLESVTISVAVGLSVDFAVHYGVAYRLAPDPDREGKVIFSLSRMGSAIAMAALTTFVAGAMMMPSTVLAYTQLGTFMMLVMCVSWAFATFFFQCLCRCLGPQGTCGQIPFPTKLQCSPFSHTLSARPGDRGPSKTHAASAYSVDARGQKSQLEHEFYELQPLASHSCTSSEKTTYEEPHTCSEFFNGQAKNLRMPVPAAYSSELTKSPSSEPGSALLQSCLEQDTVCHFSLNPRCNCRDAYTHLQYGLPEIHCQQMGDSLCHKCASTAGGFVQIQSSVAPLKASHQAAEGLLHPAQHMLPPGMQNSRPRNFFLHSVQHFQAQENLGRTSTHSTDERLPRTAELSPPPSDSRSTESFQRACCHPENNQRRLCKSRDPGDTEGSGGTKSKVSGLPNQTDKEEKQVEPSLLQTDETVNSEHLNHNESNFTFSHLPGEAGCRSCPNSPQSCRSIMRSKCGTEDCQTPNLEANVPAVPTHSDLSGESLLIKTL	3
